The values that follow come from US20210349096A1.

In this test the target is LILRB4 on human monocytic AML THP-1 cells (human) (UniProt Q8NHJ6). In words: flow cytometry, anti-His tag-APC alone on wild-type THP-1 cells (negative control); lilrb4-knockout THP-1 cells in the same panel: KO 0.9% [panel e].
Chain of LILRB4 on human monocytic AML THP-1 cells (human) (Q8NHJ6 22-448): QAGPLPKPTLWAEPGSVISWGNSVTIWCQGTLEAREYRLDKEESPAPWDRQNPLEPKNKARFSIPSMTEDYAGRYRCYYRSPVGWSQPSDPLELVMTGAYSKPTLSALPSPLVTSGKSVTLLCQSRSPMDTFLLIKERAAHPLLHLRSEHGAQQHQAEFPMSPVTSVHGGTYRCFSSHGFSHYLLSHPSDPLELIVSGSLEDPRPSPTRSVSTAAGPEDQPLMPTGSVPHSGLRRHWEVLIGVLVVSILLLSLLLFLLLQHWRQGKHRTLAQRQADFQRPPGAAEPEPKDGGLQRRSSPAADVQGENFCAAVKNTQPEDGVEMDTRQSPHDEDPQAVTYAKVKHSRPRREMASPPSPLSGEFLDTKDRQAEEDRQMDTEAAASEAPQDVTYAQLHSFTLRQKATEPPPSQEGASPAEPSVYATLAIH

In turn, Ctrl (anti-His tag-APC) (antibody) gave a % of cells in the positive gate of 0.4%.
